This is an account of results in patent US20050221381A1, “Method for isolating ligands” (priority 2002, published 2005).

Read-outs that look alike come from different tables or passages of the source.

Assay [1] deals with PBMC (CD4 and CD8 positive T-cell compartments). Nature of the assay: Intracellular IFN-γ staining combined with surface staining for CD4, CD8, CD69 (FACS). Type of assay: cell-based, human. Conditions: donor 10687, peptide 80 μg/ml (FIG. 11). As to the method:
To distinguish between CD8-positive CTL mediated or CD4-positive HTL mediated reactivity, intracellular cytokine staining combined with staining for surface markers was performed: after thawing, PBMNC were kept overnight (37° C., 5% CO2) in RPMI1640 with 10% human serum type AB (BioWhittaker). Next day aliquots of 2 million PBMNC were incubated with peptide (80 μg/ml) or Concanavalin A (SIGMA). After 1 h, 10 μg/ml brefeldin A (SIGMA) were added and incubation was continued for 5 hours. Surface staining for CD4 (phycoerythrin), CD8 (cychrome), CD69 (allophycocyanine) was done with antibodies labelled as indicated (Pharmingen, San Diego, Calif., USA). After fixation with 1% para-formaldehyde in PBS, cells were permeabilized by incubating for 15 min in 0.5% BSA/0.1% Na-azide/0.1% saponin in PBS. Intracellular cytokines were stained with anti-IFN-γ (FITC) antibody 4S.B3 (Pharmingen). Samples (100,000 events in the lymphocyte gate) were read on a FACScalibur (Becton Dickinson).
FIG. 11: Confirmation of simultaneous CD4+ and CD8+ T-cell responses against CMVpp65 15mers 469, 470 by intracellular IFN-γ staining. PBMC from 2 donors (10687, 10788) were stimulated with either ConA as positive control (1st column), 15mers containing both putative class I and class II epitopes (columns 2 and 3) or medium as negative control (right column). Cells were stained for intracellular IFN-γ (x-axis) or surface the T-cell differentiation markers CD4 or CD8 (y-axis). Percentage in upper-right quadrant is indicated, numbers significant over background are shown boldface.

The target of assay [2] is T1, soluble DRB1*0404 molecules (Homo sapiens, UniProt P01903+P01911, A100R/A169T/F76Y/I96L/K127E/L162R/M171V/N62H/P40V/Q125Y/R42H/S133A/S149N/S66Y/V209L/W38E).
T1 construct: Soluble HLA class I A*0201 and HLA class II DRA1*0101/DRB1*0101/Ii, DRA1*0101/DRB1*0401/Ii and DRA1*0101/DRB1*0404/Ii molecules were expressed in SC-2 cells; made in house; host or cells: SC-2 cells
In words: Peptide binding assay, SDS-stability assay. The arrangement: key: +++: high binding affinity; ++: moderate binding affinity; +: low binding affinity; −: no binding. The settings on record: individual pp65 15mer.

For assay [3], the target named is T2, soluble DRB1*0401 molecules (DR4) (Homo sapiens, UniProt P01903+P01911, A100K/A169T/F76Y/I96L/K127E/L162R/M171V/N62H/P40V/Q125Y/R42H/S133A/S149N/S66Y/V115G/V209L/W38E).
T2 construct: Soluble HLA class I A*0201 and HLA class II DRA1*0101/DRB1*0101/Ii, DRA1*0101/DRB1*0401/Ii and DRA1*0101/DRB1*0404/Ii molecules were expressed in SC-2 cells; made in house; host or cells: SC-2 cells
Type of assay: binding. The arrangement: key: +++: high binding affinity; ++: moderate binding affinity; +: low binding affinity; −: no binding. The settings on record: individual pp65 15mer, SDS-stability assay.

Another assay relates to CD4+ T cells. The settings on record: healthy, CMV-exposed human subjects; partially or fully identical sequences; cited from earlier work.
Assay [4] has as its system HLA-DRB1*0401-transgenic mice splenocytes. Type of assay: in vivo, mouse. The arrangement: key to DRB1*0401 mice total SC (T cell response) / DRB1*0401 mice CD4+ (T cell response): −: no binding/T cell response; +/−: weak binding/T cell response; +: intermediate binding/T cell response; ++: strong binding/T cell response.
Assay [5] addresses T1, soluble DRB1*0404 molecules. Nature of the assay: Peptide binding assay, SDS-stability assay. The settings on record: soluble DRB1*0404 molecules. The arrangement: key: −: no binding/T cell response; +/−: weak binding/T cell response; +: intermediate binding/T cell response; ++: strong binding/T cell response.
The next assay deals with DRB1*1101 (Homo sapiens, UniProt P01903+P01911, A100R/A169T/A87E/I96F/K41T/L162R/M171V/P40S/Q125H/Q178H/Q39Y/Q99D/R42S/S66Y/T262R/V115G/W38E). In words: Peptide-competition assay with biotinylated CLIP peptide (ELISA). Type of assay: binding. The arrangement: key: −: no binding/T cell response; +/−: weak binding/T cell response; +: intermediate binding/T cell response; ++: strong binding/T cell response. The settings on record: DRB1*1101. A general note: ELISA stands for enzyme-linked immunosorbent assay.

The target in the next assay is DRB1*0701 (Homo sapiens, UniProt P01903+P01911, A100R/A102G/A103Q/D57E/D86V/E43K/F76Y/K127E/L162R/M171V/P40G/Q125H/Q99D/R33Q/R42Y/R54Q/S133A/S66F/T210M/V115G/Y107V/Y59L/Y89S). The assay is described as above. Type of assay: binding. The arrangement: key: −: no binding/T cell response; +/−: weak binding/T cell response; +: intermediate binding/T cell response; ++: strong binding/T cell response. Conditions: DRB1*0701.

For assay [6], the target named is T2, soluble DRB1*0401 molecules (DR4). Type of assay: binding. The arrangement: key: −: no binding; +/−: weak binding; +: intermediate binding; ++: strong binding. The settings on record: individual pp65 15mer, SDS-stability assay.
Assay [7] concerns the target T3, soluble DRB1*0101 molecules (Homo sapiens, UniProt P01903+P01911, A100R/D57E/F55L/F60I/F76Y/I96L/L162R/M171V/P40L/Q125E/R42F/V115G/Y59C).
T3 construct: Soluble HLA class I A*0201 and HLA class II DRA1*0101/DRB1*0101/Ii, DRA1*0101/DRB1*0401/Ii and DRA1*0101/DRB1*0404/Ii molecules were expressed in SC-2 cells; made in house; host or cells: SC-2 cells
In words: Peptide binding assay, SDS-stability assay. The arrangement: key: −: no binding/T cell response; +/−: weak binding/T cell response; +: intermediate binding/T cell response; ++: strong binding/T cell response. The settings on record: soluble DRB1*0101 molecules.

The target in assay [8] is T2, soluble DRB1*0401 molecules (DR4). Type of assay: binding. The arrangement: key to Binding to DRB1 *0401: −: no binding/T cell response; +/−: weak binding/T cell response; +: intermediate binding/T cell response; ++: strong binding/T cell response. The settings on record: soluble DRB1*0401 molecules.
The test system of assay [9] is DRB1*0401, DRB1*0101, DRB1*0404, DRB1*0701 and DRB1*1101. Nature of the assay: Binding to soluble HLA molecules of different allels (promiscuity). The arrangement: species or system human. As to the method:
In peptide binding reactions HLA molecules were used in a concentration of 0.5 μM, and each single peptide was added in 10-fold molar excess (5 μM) if not mentioned differently. […] The reaction was performed in PBS buffer (pH 7.4) at room temperature for 48 hours in the presence of a protease inhibitor cocktail (Roche) and 0.1% octyl-b-D-glucopyranoside (Sigma).
Peptide binding was evaluated in an SDS-stability assay (Gorga et al., 1987): trimeric HLA class II ab-peptide complexes are resistant to SDS and consequently appear as ˜60 kDa band in SDS-PAGE Western blot analysis. Individual HLA class II α and β chains not stabilized by a peptide binding with intermediate to high affinity migrate as ˜35 kDa and ˜30 kDa bands, respectively.
The binding affinities to DRB1*0701 and DRB1*1101 were tested by a peptide-competition assay (Reay et al., 1992). Briefly, binding of the biotinylated CLIP peptide (reference peptide) has been used for monitoring of HLA:peptide complex formation. […] In the case of lower affinity peptides they should be added in excess to the reference peptide to compete for occupancy of HLA binding grove. […] Alternatively, comparing of the amount of reference peptide bound to HLA molecules in the presence or absence of competitor peptide one can determine the binding activity of the peptide of interest.
In the present peptide-competition assay conditions of peptide binding were similar to described above. Soluble HLA molecules were used in the concentration of 0.5 μM and biotinylated CLIP was added to all samples in the final concentration of 2 μM. Competitor peptides were added in three different concentrations: 0.25, 5 and 100 μM. Binding reaction was performed in PBS buffer (pH 7.4) for 18 hours at 37° C. […] Briefly, MaxiSorb 96-well plates (Nunc, Denmark) were coated with mouse anti-αβ antibody L243 (purified from ATCC HB-55) by overnight incubation with 50 μl of 10 μg/ml dilution in PBS at 4° C. Non-specific binding to the plastic was blocked by incubation with T-PBS containing 3% of BSA for 2 hours at 37° C. and binding reactions were then “captured” for 2 hours at room temperature. […] The optical density at 405 nm was measured on a microplate reader SUNRISE (Tecan).
Some of the identified DRB1*0401 binding peptides, as well as others chosen by prediction algorithms were also tested for binding to soluble HLA molecules of different allels: DRB1*0101, DRB1*0404, DRB1*0701 and DRB1*1101 (Table 3).

Assay [10] concerns the target T3, soluble DRB1*0101 molecules. Nature of the assay: Peptide binding assay, SDS-stability assay. The settings on record: individual pp65 15mer. The arrangement: key: +++: high binding affinity; ++: moderate binding affinity; +: low binding affinity; −: no binding.
[11] abbreviates: IFN-gamma ELISpot, enriched CD4+ fraction of splenocytes of HLA-DR4 transgenic mice vaccinated with the longer peptide, ex vivo re-stimulation.
Where [12] appears, read: IFN-gamma ELISpot, total splenocytes of HLA-DR4 transgenic mice vaccinated with the longer peptide, ex vivo re-stimulation.

For AGILARNLVPMVATV [Peptide 489], in assay [1], the “Intracellular IFN-γ in CD4 and CD8 positive T-cell compartments” value was “only CD8 mediated IFN-γ secretion”.
For the sequence TDEDSDNEIHNPAVF [Peptide 468], the “Binding to DRB1*0404” value in [2] is “−”. Also, the “Binding to DRB1*0401” value in assay [3] is “−”.
Turning to PQYSEHPTFTSQYRI [Peptide 361], the “Specific CD4+ T cells response described earlier” value in the assay on CD4+ T cells is listed as “capable to evoke specific CD4+ T cells response”. In addition, the “DRB1*0401 mice CD4+ (T cell response)” value in [4] (mouse, in vivo) is recorded as “++”. For the same sequence, the “DRB1*0401 mice total SC (T cell response)” value (shortened to “DRB1*0401 mice total SC”) in assay [4] (mouse, in vivo, sc) is listed as “+”.
NLKYQEFFWDANDIY [Peptide 507]: the “Binding to DRB1*0404” value in [5] is “−”. Also, the “Specific CD4+ T cells response described earlier” value in the assay on CD4+ T cells is reported as “capable to evoke specific CD4+ T cells response”. Further, the “Binding to DRB1 1101” value with DRB1*1101 is given as “−”. For the same sequence, the “Binding to DRB1 *0701” value with DRB1*0701 is reported as “−”. The “Binding to DRB1*0401” value in assay [6] is given as “+/−”. For the same sequence, the “DRB1*0401 mice CD4+ (T cell response)” value in [4] (setting [11]) is recorded as “+”. Further, the “DRB1*0401 mice total SC” value in assay [4] (setting [12]) is recorded as “++”. Also, the “Binding to DRB1*0101” value in [7] is “−”. The “Binding to DRB1 *0401” value in assay [8] is “+/−”.
As for EPDVYYTSAFVFPTK [Peptide 177], the “Binding to DRB1*0404” value in assay [5] is reported as “−”. Moreover, the “Affinity for several HLA molecules (promiscuity)” value in [9] is “affinity for at least two HLA molecules”. In addition, in the assay on CD4+ T cells, the “Specific CD4+ T cells response described earlier” value is “capable to evoke specific CD4+ T cells response”. Also, the “Binding to DRB1 1101” value with DRB1*1101 was “+”. Further, the “Binding to DRB1 *0701” value in the assay with DRB1*0701 was “−”. In [6], the “Binding to DRB1*0401” value is listed as “+”. In addition, in [4] (setting [11]), the “DRB1*0401 mice CD4+ (T cell response)” value is on record as “+”. Further, in assay [4] (setting [12]), the “DRB1*0401 mice total SC” value was “+”. The “Binding to DRB1*0101” value in [7] is “++”. Also, the “Binding to DRB1 *0401” value in [8] is “+”.
For the sequence LKYQEFFWDANDIYR [Peptide 508], the “Specific CD4+ T cells response described earlier” value in the assay with CD4+ T cells was “capable to evoke specific CD4+ T cells response”. For the same sequence, the “Binding to DRB1*0401” value in [6] is “+/−”. In addition, the “DRB1*0401 mice CD4+ (T cell response)” value in assay [4] (setting [11]) was “++”. Besides, the “DRB1*0401 mice total SC” value in [4] (setting [12]) is recorded as “++”. Besides, the “Binding to DRB1 *0401” value in assay [8] is given as “+/−”.
For QWKEPDVYYTSAFVF [Peptide 174], the “DRB1*0401 mice CD4+ (T cell response)” value in assay [4] (setting [11]) was “+/−”. In addition, the “DRB1*0401 mice total SC” value in [4] (setting [12]) was “+/−”. In addition, the “Binding to DRB1*0101” value in [10] is “−”. Also, in assay [8], the “Binding to DRB1 *0401” value is “−”. Also, in [3], the “Binding to DRB1*0401” value is “−”.
Take KEPDVYYTSAFVFPT [Peptide 176]: the “Binding to DRB1*0401” value in [6] was “+/−”. The “DRB1*0401 mice CD4+ (T cell response)” value in assay [4] (setting [11]) is recorded as “+”. Besides, the “DRB1*0401 mice total SC” value in assay [4] (setting [12]) is recorded as “+”. Besides, the “Binding to DRB1*0101” value in assay [10] is recorded as “−”. In assay [8], the “Binding to DRB1 *0401” value was “+/−”.
